The target in this series is rM1M2 HuR (RRM1-RRM2) (UniProt Q15717 18-186). Description: HTRF; 20 nM protein, 50 nM probe; TM7nox inhibits with IC50 0.7956 uM (small-molecule IC50, not an affinity); REMSA: 30 min incubation, 4% native gel, buffer not given; HTRF: Cisbio protocol; pull-down: lysis in PEB (20 mM Tris-HCl pH 7.5, 100 mM KCl, 5 mM MgCl2, 0.5% NP-40), binding in TENT (20 mM Tris-HCl pH 8.0, 2 mM EDTA, 500 mM NaCl, 1% Triton X-100), 4 C. To be noted: protein: recombinant; tags: His-tag; label: 5'-biotin; single strand. On the technique in general: TR-FRET usually uses a lanthanide donor and a delayed reading to cut background.

These results are taken from article doi:10.1101/2023.01.16.524289, “HuR modulation with tanshinone mimics impairs LPS response in murine macrophages”.

Sequence of rM1M2 HuR (RRM1-RRM2) (Q15717 18-186): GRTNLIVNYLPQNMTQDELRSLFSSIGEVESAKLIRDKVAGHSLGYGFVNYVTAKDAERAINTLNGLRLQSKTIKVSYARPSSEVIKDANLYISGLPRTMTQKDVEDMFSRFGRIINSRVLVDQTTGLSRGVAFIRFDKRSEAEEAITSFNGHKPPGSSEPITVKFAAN

Turning to AUUAUUUAUUAUUUAUUUAUUAUUUA (ssRNA) [Bi-TNF ARE probe (26 nt)], the binding result is “binds”.
